Patent US20190135872A1

Columns and labels:
[1] = target: BG505 NFL-TD+CC2-D4K_L555P (HIV-1 BG505 (clade A)); test: ELISA, His-captured trimer
[2] = target: 16055 NFL-CC2 (HIV-1 16055 (clade C)); test: ELISA, His-captured trimer
[3] = target: BG505 NFL-CC2 (HIV-1 BG505 (clade A)); test: ELISA, His-captured trimer
[4] = target: BG505 NFL-L555P (HIV-1 BG505 (clade A)); test: ELISA, His-captured trimer
[5] = target: BG505 NFL-TD+CC2-D4K_L555P w/rEK (HIV-1 BG505 (clade A)); test: ELISA, His-captured trimer
[6] = target: BG505 NFL-TD+CC2-D4K_I559P w/rEK (HIV-1 BG505 (clade A)); test: ELISA, His-captured trimer
[7] = target: 16055 NFL-TD+CC2-D4K_L555P (HIV-1 16055 (clade C)); test: ELISA, His-captured trimer
[8] = target: 16055 NFL-L555P (HIV-1 16055 (clade C)); test: ELISA, His-captured trimer
[9] = target: BG505 NFL-TD+CC2-D4K_I559P (HIV-1 BG505 (clade A)); test: ELISA, His-captured trimer
[10] = target: 16055 NFL-TD+CC2-D4K_I559P (HIV-1 16055 (clade C)); test: ELISA, His-captured trimer
[11] = target: 16055 NFL-TD+CC2-D4K_I559P w/rEK (HIV-1 16055 (clade C)); test: ELISA, His-captured trimer
[12] = target: BG505 NFL (I559P) parental (HIV-1 BG505 (clade A)); test: ELISA, His-captured trimer
[13] = target: 16055 NFL-TD+CC2-D4K_L555P w/rEK (HIV-1 16055 (clade C)); test: ELISA, His-captured trimer
[14] = target: JRFL NFL-CC2 (HIV-1 JRFL (clade B)); test: ELISA, His-captured trimer
[15] = target: 16055 NFL (I559P) parental (HIV-1 16055 (clade C)); test: ELISA, His-captured trimer
[16] = target: 16055 NFL-Q563P (HIV-1 16055 (clade C)); test: ELISA, His-captured trimer
[17] = target: +N332 PT (HIV-1 16055 (Indian subtype C)); test: negative-stain EM, 2D classes of trimer-Fab complexes
[18] = target: +N332 N276Q/N360Q/N463Q/N301Q (HIV-1 16055 (Indian subtype C)); test: as above
[19] = target: +N332 N301Q (HIV-1 16055 (Indian subtype C)); test: BLI, trimer on anti-His sensor, Fab analyte
[20] = target: +N332 N276Q/N360Q/N463Q (HIV-1 16055 (Indian subtype C)); test: BLI, trimer on anti-His sensor, Fab analyte
[21] = target: +N332 N276Q/N360Q/N463Q/N301Q (HIV-1 16055 (Indian subtype C)); test: BLI, trimer on anti-His sensor, Fab analyte
[22] = target: N276Q/N463Q trimer (PT backbone) (HIV-1 16055 (Indian subtype C)); test: BLI, trimer on anti-His sensor, Fab analyte
[23] = target: +N332 PT (HIV-1 16055 (Indian subtype C)); test: BLI (Octet): trimer on anti-His sensor, Fab in solution, 1:1 global fit
[24] = target: +N332 N301Q (HIV-1 16055 (Indian subtype C)); test: as above
[25] = target: +N332 N276Q/N360Q/N463Q (HIV-1 16055 (Indian subtype C)); test: as above
[26] = target: +N332 N276Q/N360Q/N463Q/N301Q (HIV-1 16055 (Indian subtype C)); test: as above
[27] = target: 16055 NFL TD CC (T569G) (HIV-1 16055 (Indian subtype C)); test: as above
[28] = target: N276Q/N463Q trimer (PT backbone) (HIV-1 16055 (Indian subtype C)); test: as above
[29] = target: BG505 NFL-TD+CC2-D4K_L555P (HIV-1 BG505 (clade A)); test: BLI, IgG captured, trimer as analyte
[30] = target: BG505 NFL-Q563P (HIV-1 BG505 (clade A)); test: BLI, IgG captured, trimer as analyte
[31] = target: 16055 NFL-CC2 (HIV-1 16055 (clade C)); test: BLI, IgG captured, trimer as analyte
[32] = target: 16055 NFL-Q562P (HIV-1 16055 (clade C)); test: BLI, IgG captured, trimer as analyte
[33] = target: BG505 NFL-CC2 (HIV-1 BG505 (clade A)); test: BLI, IgG captured, trimer as analyte
[34] = target: BG505 NFL-L555P (HIV-1 BG505 (clade A)); test: BLI, IgG captured, trimer as analyte
[35] = target: BG505 NFL-S553P (HIV-1 BG505 (clade A)); test: BLI, IgG captured, trimer as analyte
[36] = target: 16055 NFL-TD+CC2-D4K_L555P (HIV-1 16055 (clade C)); test: BLI, IgG captured, trimer as analyte
[37] = target: 16055 NFL-L555P (HIV-1 16055 (clade C)); test: BLI, IgG captured, trimer as analyte
[38] = target: BG505 NFL-Q562P (HIV-1 BG505 (clade A)); test: BLI, IgG captured, trimer as analyte
[39] = target: BG505 NFL-TD+CC2-D4K_I559P (HIV-1 BG505 (clade A)); test: BLI, IgG captured, trimer as analyte
[40] = target: 16055 NFL-TD+CC2-D4K_I559P (HIV-1 16055 (clade C)); test: BLI, IgG captured, trimer as analyte
[41] = target: BG505 NFL-N554P (HIV-1 BG505 (clade A)); test: BLI, IgG captured, trimer as analyte
[42] = target: BG505 NFL (I559P) parental (HIV-1 BG505 (clade A)); test: BLI, IgG captured, trimer as analyte
[43] = target: 16055 NFL (I559P) parental (HIV-1 16055 (clade C)); test: BLI, IgG captured, trimer as analyte
[44] = target: 16055 NFL-Q563P (HIV-1 16055 (clade C)); test: BLI, IgG captured, trimer as analyte

Work on 2G12 (antibody) yielded an EC50 [1] of 0.027 µg/mL, an EC50 [2] of 0.056 µg/mL and an EC50 [3] of 0.025 µg/mL. For the same substance, the EC50 [4] was 0.022 µg/mL, the EC50 [5] was 0.021 µg/mL and the EC50 [6] was 0.031 µg/mL. The EC50 [7] was 0.038 µg/mL, the EC50 [8] was 0.051 µg/mL and the EC50 [9] was 0.024 µg/mL. For the same substance, the EC50 [10] was 0.043 µg/mL, the EC50 [11] was 0.105 µg/mL and the EC50 [12] was 0.029 µg/mL. It also gave an EC50 [13] of 0.11 µg/mL, an EC50 [14] of 0.022 µg/mL and an EC50 [15] of 2.34 µg/mL. The EC50 [16] was 0.066 µg/mL.

For VRC01 (antibody), the EC50 [1] was 0.051 µg/mL, the EC50 [2] was 0.021 µg/mL and the EC50 [3] was 0.059 µg/mL. For the same substance, the EC50 [4] was 0.07 µg/mL, the EC50 [5] was 0.069 µg/mL and the EC50 [6] was 0.066 µg/mL. It also gave an EC50 [7] of 0.067 µg/mL, an EC50 [8] of 0.178 µg/mL and an EC50 [9] of 0.042 µg/mL. The EC50 [10] was 0.059 µg/mL, the EC50 [11] was 0.208 µg/mL and the EC50 [12] was 0.05 µg/mL. It also gave an EC50 [13] of 0.178 µg/mL, an EC50 [14] of 0.032 µg/mL and an EC50 [15] of 0.055 µg/mL. For the same substance, the EC50 [16] was 0.294 µg/mL.

Work on VRC03 Fab yielded a share of trimers unliganded [17] of 19%, a share of trimers with 1 Fab [17] of 20% and a share of trimers with 2 Fabs [17] of 34%. The share of trimers with 3 Fabs [17] was 27%, the share of trimers unliganded [18] was 22% and the share of trimers with 1 Fab [18] was 23%. The share of trimers with 2 Fabs [18] was 30%, the share of trimers with 3 Fabs [18] was 25% and the fold lower binding vs +N332 PT [19] was 2 fold. For the same substance, the fold difference in affinity vs +N332 PT [20] was 10 fold, the fold difference in affinity vs +N332 PT [21] was 8 fold and the fold more efficient recognition vs PT [22] was 30 fold. It also gave a Kd [23] of 131 nM, a koff [23] of 0.00204 s⁻¹ and a kon [23] of 15600 M⁻¹ s⁻¹. For the same substance, the Kd [24] was 270 nM, the koff [24] was 0.0037 s⁻¹ and the kon [24] was 13700 M⁻¹ s⁻¹. The Kd [25] was 12.9 nM, the koff [25] was 0.000739 s⁻¹ and the kon [25] was 57100 M⁻¹ s⁻¹. For the same substance, the Kd [26] was 16.4 nM, the koff [26] was 0.00124 s⁻¹ and the kon [26] was 75400 M⁻¹ s⁻¹. The Kd [27] was 241 nM, the koff [27] was 0.0026 s⁻¹ and the kon [27] was 10800 M⁻¹ s⁻¹. For the same substance, the Kd [28] was 8.6 nM, the koff [28] was 0.000505 s⁻¹ and the kon [28] was 58700 M⁻¹ s⁻¹.

With PGT145 (antibody) the EC50 [1] was 0.014 µg/mL, the EC50 [2] was 0.013 µg/mL and the EC50 [3] was 0.011 µg/mL. For the same substance, the EC50 [4] was 0.018 µg/mL, the EC50 [5] was 0.015 µg/mL and the EC50 [6] was 0.016 µg/mL. For the same substance, the EC50 [7] was 0.014 µg/mL, the EC50 [8] was 0.014 µg/mL and the EC50 [9] was 0.013 µg/mL. For the same substance, the EC50 [10] was 0.015 µg/mL, the EC50 [11] was 0.019 µg/mL and the EC50 [12] was 0.016 µg/mL. For the same substance, the EC50 [13] was 0.015 µg/mL, the EC50 [14] was 0.012 µg/mL and the EC50 [16] was 0.013 µg/mL. For the same substance, the Kd [29] was 19 nM, the koff [29] was 0.0031 s⁻¹ and the kon [29] was 170000 M⁻¹ s⁻¹. It also gave a Kd [30] of 3.6 nM, a Kd [31] of 16 nM and a koff [31] of 0.004 s⁻¹. The kon [31] was 240000 M⁻¹ s⁻¹, the Kd [32] was 2.9 nM and the koff [32] was 0.0009 s⁻¹. For the same substance, the kon [32] was 300000 M⁻¹ s⁻¹, the Kd [33] was 21 nM and the koff [33] was 0.0034 s⁻¹. For the same substance, the kon [33] was 160000 M⁻¹ s⁻¹, the Kd [34] was 2.9 nM and the Kd [35] was 5 nM. For the same substance, the Kd [36] was 16 nM, the koff [36] was 0.0035 s⁻¹ and the kon [36] was 220000 M⁻¹ s⁻¹. For the same substance, the Kd [37] was 3.3 nM, the koff [37] was 0.001 s⁻¹ and the kon [37] was 310000 M⁻¹ s⁻¹. It also gave a Kd [38] of 6.2 nM, a Kd [39] of 16 nM and a koff [39] of 0.0027 s⁻¹. It also gave a kon [39] of 170000 M⁻¹ s⁻¹, a Kd [40] of 25 nM and a koff [40] of 0.0056 s⁻¹. It also gave a kon [40] of 220000 M⁻¹ s⁻¹, a Kd [41] of 4.3 nM and a Kd [42] of 6.2 nM. It also gave a Kd [43] of 1.9 nM, a Kd [44] of 1.6 nM and a koff [44] of 0.0005 s⁻¹. For the same substance, the kon [44] was 320000 M⁻¹ s⁻¹.
